Results: patent publication US20240352121A1, “LAIR-1 AGONISTIC ANTIBODIES AND METHODS OF USE THEREOF” (NEXTCURE, INC., priority 2023, published 2024)

Key:
human LAIR-1 = target: T1, human LAIR-1 (Homo sapiens, UniProt Q6GTX8, D63E/L98P/R92S/S123T); test: Cell binding to human LAIR-1 cells by flow cytometry; conditions: UT-140 cells
T1 construct: expressed in transfected cells
T1 sequence (Q6GTX8 22-287 D63E/R92S/L98P/S123T): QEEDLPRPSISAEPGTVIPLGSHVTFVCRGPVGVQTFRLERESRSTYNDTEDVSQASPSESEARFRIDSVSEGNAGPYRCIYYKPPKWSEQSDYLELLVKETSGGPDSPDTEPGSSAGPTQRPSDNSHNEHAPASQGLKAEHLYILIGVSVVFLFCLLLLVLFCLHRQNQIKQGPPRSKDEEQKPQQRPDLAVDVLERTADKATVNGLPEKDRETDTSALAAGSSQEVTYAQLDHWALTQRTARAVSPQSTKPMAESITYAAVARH
Experimental: FIGS. 21A-21B display LAIR-1 binding properties including h11B3 LAIR-1 mAbs binding to cells expressing human LAIR-1 or cynomolgus LAIR-1 as measured by flow cytometry. The h11B3 LAIR-1 mAbs include a variable light chain of SEQ ID NO: 16 and a variable heavy chain of SEQ ID NO: 21, as shown for Anti-LAIR-1 Variant 6 in Table 1 herein. […] Cells were incubated for 30 min on ice with titrated concentrations of h11B3. AF647 conjugated secondary antibody was used at 1:2000 dilution. […] Cells were incubated for 30 min on ice with titrated concentrations of h11B3. AF647 conjugated secondary antibody was used at 1:2000 dilution.
For cell binding assays, 5e4 UT-140 cells or mouse LAIR-1-transfected 293T cells per well were plated in 200 μL PBS in a 96-well round bottom plate, centrifuged for 4 minutes at 500×g for a single wash, and blocked for 10 minutes on ice with flow cytometry buffer (PBS+2% FBS+0.1 mM EDTA) containing 1:50 dilution of TruStain™ Fc block (Biolegend, San Diego, CA). Cells were subsequently stained for 30 min on ice with titrated concentrations of soluble AF647-labeled LAIR-1 mAb or AF647-labeled isotype control. Cells were then washed 3 times as previously described and binding was measured by flow cytometry using an Attune NXT flow cytometer. […] GFP expression was measured by flow cytometry using an Attune NXT Flow Cytometer.

[1] = tested on: blood leukocytes from healthy (non-AML) donors; test: Ex vivo depleting assay, healthy donor blood leukocytes; assay type: cell-based, human; conditions: even in the presence of collagen ECM
Experimental: Fresh whole blood was RBC-depleted using the EasySep™ RBC Depletion Reagent (StemCell, Vancouver, BC) following the manufacturer's protocol. Alternatively, frozen PBMCs were thawed in pre-warmed cRPMI media. Cell number was determined by VI-Cell XR cell counter. 2e5 cells per well were plated into 96-well plates lacking or containing 50 μg/mL pre-coated human Collagen I (StemCell, Vancouver, BC) in 200 μL of cRPMI containing 10 μg/mL of soluble LAIR-1 mAb or isotype control antibody (NP782 (NextCure, Beltsville, MD) or InVivoMAb recombinant human IgG1 Fc (BioXcell, Lebanon, NH)). Plates were centrifuged at 100×g for 2 minutes, then incubated for 20 hours at 37° C. in a TC incubator. At the end of incubation period, plates were centrifuged at 500×g for 4 min. Cells were resuspended and then transferred to a 96-well round-bottom plate for cell staining and flow cytometry as described above.

[2] = tested on: healthy human primary immune cells; test: Effect on healthy human immune cells in mice reconstituted with human CD34 cells; assay type: in vivo, NSG-SGM3 mice
Experimental: NSG-SGM3 mice were purchased from Jackson Laboratory. Mice were engrafted with CD34+ cord blood cells donor #2523. Mice treated weekly beginning 18 weeks after engraftment with anti-human LAIR-1 mAb clone 11B3 in human G1 or G4P format, or control at 100 μg/mouse (5 mg/kg) for 4 weeks. Bleed at weeks 2 (1 day prior to 2nd dose) and 4 (one day prior to 4th dose) for circulating immune cells. Mice were sacrificed 1 week after final dose for analysis of spleen, LN and bone marrow. FIGS. 35A-35B show total body weight and survival of NSG-SGM3 mice reconstituted with human CD34+ cord blood cells and treated 11B3 antibodies. FIGS. 35C-35G show time-course follow-up of the changes in the immune cell numbers in the blood collected from NSG-SGM3 reconstituted with human CD34+ cord blood cells. FIGS. 35H-35I show Analysis of immune cell numbers in the spleen and bone marrow collected from NSG-SGM3 reconstituted with human CD34+ cord blood cells.
For assessment of mAb impacts on normal human immune cells, NSG-SGM3-CD34^+ fully engrafted humanized mice (>25% human CD45+ leukocytes in circulation) were purchased from Jackson Laboratory (stock #2523, Bar Harbor, ME). […] Absolute numbers of cell subpopulations were calculated, as well as percentages of each population subset as a percentage of total CD45^+ cells and total leukocyte gate.

B1: LAIR-1 mAb: humanized agonist anti-LAIR-1 mAb, IgG1 backbone; h11B3 VL-2 (SEQ ID NO: 16), h11B3 VH-3 (SEQ ID NO: 27) (antibody, V domains shown)
VH: EVQLVESGGGLVQPGGSLKLSCAASGFTFNTNAMYWVRQAPGKGLEWVGRIRSKSSNYATYYAASVKGRFTISRDDSKNTLYLQMNSLKTEDTAVYYCVRGGSGFFAYWGQGTLVTVSS
VL: DIQMTQSPSSLSASLGDRVTITCKASEDIYIRLAWYQQKPGKAPRLLISTATSLETGVPSRFSGSGSGTDYTFTISSLQPEDIATYYCQQYWSTPYTFGGGTRLEIK
modifications: IgG1 constant regions; Synthetic: h11B3 VH-3; Synthetic: h11B3 VL-2
binding to human LAIR-1 (human LAIR-1): specifically binds | depletion of blood leukocytes [1]: did not deplete | depletion, inhibition, or expansion of healthy human primary immune cells ([2]; 100 μg/mouse (5 mg/kg) weekly for 4 weeks): no depletion, inhibition, or expansion | effects on healthy immune cells in the spleen or the bone-marrow ([2]; NSG mice reconstituted with healthy human CD34 stem cells): minimal effects
